Measured values published in PMC3806761, “Characterization of the Akt2 Domain Essential for Binding Nuclear p21cip1 to Promote Cell Cycle Arrest during Myogenic Differentiation” (PLoS ONE, 2013).

B1: Akt2 (400–481) (domain or fragment, human, UniProt P31751 400-481, looked up)
chain: AKEVMEHRFFLSINWQDVVQKKLLPPFKPQVTSEVDTRYFDDEFTAQSITITPPDRYDSLGLLELDQRTHFPQFSYSASIRE
notes: The tag is therefore uncertain; source: expressed in bacteria, purified; not shown: His6, C-terminal, kept
B2: Akt2 (400–445) maltose binding fusion protein (domain or fragment, human, UniProt P31751 400-445, looked up)
chain: AKEVMEHRFFLSINWQDVVQKKLLPPFKPQVTSEVDTRYFDDEFTA
notes: The methods name no vector for this construct
B3: Akt2 (350–481) (domain or fragment, human, UniProt P31751 350-481, looked up)
chain: FYNQDHERLFELILMEEIRFPRTLSPEAKSLLAGLLKKDPKQRLGGGPSDAKEVMEHRFFLSINWQDVVQKKLLPPFKPQVTSEVDTRYFDDEFTAQSITITPPDRYDSLGLLELDQRTHFPQFSYSASIRE
notes: as for B1
B4: Akt2 (420–445) maltose binding fusion protein (domain or fragment, human, UniProt P31751 420-445, looked up)
chain: KKLLPPFKPQVTSEVDTRYFDDEFTA
notes: as for B2

Legend:
[1] = target: T1, recombinant human p21cip1 (human, UniProt P38936 1-164); assay: pull-down; purified His-tagged Akt2 proteins and His-tagged p21cip1 incubated together on ice; p21cip1 immunoprecipitated with anti-p21; immunoprecipitates probed for Akt2 by Western blot; settings: both partners purified
T1 construct: In the functional row this molecule stands for p21cip1 endogenous in human myoblasts; source: recombinant, purified
T1 sequence (P38936 whole entry): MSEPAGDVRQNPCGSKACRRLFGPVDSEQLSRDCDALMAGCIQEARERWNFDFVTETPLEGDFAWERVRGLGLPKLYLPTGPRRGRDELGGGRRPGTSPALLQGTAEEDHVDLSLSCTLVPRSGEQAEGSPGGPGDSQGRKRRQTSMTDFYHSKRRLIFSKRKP

[2] = target: T1, recombinant human p21cip1; assay: pull-down; MBP-tagged Akt2 peptides bound to amylose resin, incubated with p21 (1 µg and 5 µg), extensively washed, maltose-fusion peptides eluted, blotted with anti-p21; settings: both partners purified

| Binder | binding result [1] | binding result [2] |
| --- | --- | --- |
| B1 | binds | – |
| B2 | – | binds |
| B3 | binds | – |
| B4 | – | binds |
